Assay results as given in the nanobody polyreactivity screen of Harvey et al. (2022).

Assay: yeast display, Sf9 membrane polyspecificity reagent, FACS + sequencing; frameworks hold sequencing errors
Procedure, shortened: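 Sorting gates, low and high (top ~1%), were placed on anti-HA fluorescence to track expression and on streptavidin fluorescence to track reagent binding. A clone's polyreactivity label is taken from the gate it came out of. The reagent was 10% biotinylated, detergent-solubilized Sf9 membrane, applied for 1 hour at 4 °C to galactose-induced yeast display cells.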

Sequence | polyreactivity (PSR sort gate)
QVQLVESGGGLVQAGGSLRLSCAASGRIFYYNVMGWYRQAHGKERELVASISYSSTRTYYADSVKGRFTISRDNAKNTVYLQMNRLKQEDTAVYYCAVDTYAYRGVSYWSERTYYYWGQGTQVNVSS | low polyreactivity
QVQLVESGGGLVQAGGSLRLSCAASGRIFYYYAMGWSRQAPGKERELVAAITRRGGSTYYADSVKGRFTISRDNAKNTVYLQMNSLKPEDPADYYCAKPDRTGWLDGEYWGQGTQVTVSS | low polyreactivity
QVQLVESGGGLVQAGGSLRLSCAASGRIFYYYAMGWYRPAPGKERELVAAINRDGGRTYYADSVKGRFTISRDNAKNTVYLQMNSLKPEDTAVYYCAASYGYVYTTSLDYWGQGTQVTVSS | low polyreactivity
QVQLVESGGGLVQAGGSLRLSCAASGRIFYYYAMGWYRQAPATERELFAGINSGGNTYADSVKGRFTISRDNAKNTVYLQMNSLKPEDTAVYYCATDFYSYAGGYYHHDHWGQGTQVTVSS | high polyreactivity
QVQLVESGGGLVQAGGSLRLSCAASGRIFYYYAMGWYRQAPGKERELVAAIRWSGGSTYYADSVKGRFTISRDNEKNTVYLQMNSLKPEDTAVYYCAADSRTNGYDYWGQGTQVTVSS | high polyreactivity
QVQLVESGGGLVQAGGSLRLSCAASGRIFYYYAMGWYRQAPGKERELVAAISSIDGTTYYADSVKGRFTISRDNAKNTVYLQMNSLKPEDTAVYYCAAEDPADQYDYWGQGTQVTVSS | high polyreactivity
QVQLVESGGGLVQAGGSLRLSCAASGRIFYYYAMGWYRQAPGKERELVAAISSIGGSTYADSVKGRFTISRDNAKNTVYLQMNSLKPEDTAVYYCAADGFKRLYTQVAHVRYDYWGQGTQVTVSS | low polyreactivity
QVQLVESGGGLVQAGGSLRLSCAASGRIFYYYAMGWYRQAPGKERELVAAISWSGGSTYYADSVKGRFTISRDNAKNTVYLQMNSLKPEDTAVYYCAAESRKYREYYYWGQGTQVTVSS | high polyreactivity
QVQLVESGGGLVQAGGSLRLSCAASGRIFYYYAMGWYRQAPGKERELVAVISRGGRTKYADSVKGRFTISRDNAKNTVYLQMNILKPEDTAVYYCAAYPSYYGDSGLRYDYWGQGTQVTVSS | high polyreactivity
QVQLVESGGGLVQAGGSLRLSCAASGRIFYYYDMGWYRQAPGKARELVAAITSAGITYYADSVKGRFTISRDNAKNTVYLQMNSLKPEDTAVYYCAVEFYDKRWPYRGGYWGQGTQVTVSS | low polyreactivity
QVQLVESGGGLVQAGGSLRLSCAASGRIFYYYTMGWYRPAPGKERELVARITGLTGRTYYADCVKGRFTISRDNGKNTVYLQMNSLKPEDTAVYYCNARYFRHYDYWGQGTQGTVSS | high polyreactivity
QVQLVESGGGLVQAGGSLRLSCAASGRIFYYYTMGWYRQAPGKEREVVAAITKGDDDTSYADSVKGRFTISRDNAKNTVYVQMNSLKPEDTAVYYCAVEIVLVPFVVGYDYWGQGTQVTVSS | low polyreactivity
QVQLVESGGGLVQAGGSLRLSCAASGRIGNTMGWYRQAPGKERELVATISSSGGSTYYADSVKGRFTISRDNAKNTVYLQMNSLKPEDTAVYYCAVEYYGYSTSGRYLSPYNYWGQGTQVTVSS | low polyreactivity
QVQLVESGGGLVQAGGSLRLSCAASGRIGPNVMGWYRQPPGKERELVARITWRGGSTYYADSVKGRFTISRDNAKNTVYLQMNSLKPEDTAVYYCNARGHGGWGTSMYYWGQGTQVTVSS | high polyreactivity
QVQLVESGGGLVQAGGSLRLSCAASGRIIAIYAMGWYRPAPGKERELVAAISWNSGRTNYADSVKGRFTISRDNAKNTVYLQMNSLKPEDTAVYYCAADGDRYLVSTSYPEYDYWGQGTQVTVTS | low polyreactivity
QVQLVESGGGLVQAGGSLRLSCAASGRIIDRNDMGWYRQAPGKERELVAAISSSGSTNYADSVKGRFTISRDNAKNTVYLQMNSLKPEHTAGYYCADRWRSVLASGTRPVSFDYWGQGTQVTVSS | low polyreactivity
QVQLVESGGGLVQAGGSLRLSCAASGRIIEHNAMGWYRQAPGKERELVAAINYSGGSTYYADSVKGRFTISRDNAKNTVYLQMNSLKPEDTAVYYCATRTGHWGQGTQVTVSS | low polyreactivity
QVQLVESGGGLVQAGGSLRLSCAASGRIIFRNAMGWYRQAPGKERELVAAISTSGGSTYYADSVKGRFTISRDNAKNTVYLQMNSLKPEDTAVYYWSKQFNSSPRRYYWGQGTQVTVSS | high polyreactivity
QVQLVESGGGLVQAGGSLRLSCAASGRIIGFNAMGWYRQAPGKEMELVASIRTTGGSTRYADSVKGRFTISRDNAKNTVYLQMNSLKREDTAVYYCAARWGKTLWQYNYWGQGTQVTVSS | high polyreactivity
QVQLVESGGGLVQAGGSLRLSCAASGRIIGKNVMGWSRQAPGKDRELVAAISNSGGSTYYADSVKGRFTISRDNAKNTVYLQMNSLKPEDTAVYYCAVDTSYYDYWGQGTQVTVSS | high polyreactivity
QVQLVESGGGLVQAGGSLRLSCAASGRIIGLYTMGWYRQAPGKERELVAAINIRGTRTYYADSVKGRFTISRDNAKNTVYLQMNSLKPEDTSVYYCARSPVVVGSFLSYDYWGQGTQVTVSS | high polyreactivity
QVQLVESGGGLVQAGGSLRLSCAASGRIIGLYTMGWYRQAPGKERELVAAINIRGTRTYYADSVKGRFTISRDNAKNTVYLQMTSLKPEDTAVYYCNAYPKSWELDYWGLGTQVTVSS | high polyreactivity

Sequence | polyreactivity (PSR sort gate)
QVQLVESGGGLVQAGGSLRLSCAASGRIIGYNAMGWYRQAPGKERELVATITYGGGRTYYADSVKGRFTISRDNAKNTVYLQMNSLKPEDTAVYYCAAKHRFPIPGFGYWGQGTQVTVSS | low polyreactivity
QVQLVESGGGLVQAGGSLRLSCAASGRIIKYYTMGWYRQAPGKERELVASITGTGGSTYYADSVKGRFTISRDNAKNTVYLQMNSLKPEDTAVYYCAARLSVLGGYRGRNAWRFDHWGQGTQVTVSS | high polyreactivity
QVQLVESGGGLVQAGGSLRLSCAASGRIILGYAMGWYRQAPGKERELVARITWSGGSTYYADSVKGRFTISRDNAKNTVSLQMNSLKPEDNAVYYCAKRTYYSYPDGYWGQGTQVTVSS | high polyreactivity
QVQLVESGGGLVQAGGSLRLSCAASGRIIRSYAMGRYRQAPRKERELVDAITTGGRTYYADSVKGRFTISRDNAKNTVYLQMNSLKPEDTAVYYCNSALVYRGTDTNDYWGQGTQVTVSS | high polyreactivity
QVQLVESGGGLVQAGGSLRLSCAASGRIIRWYAMAWYRQAPGKERELVAAITWRGGSTDYADSVKGRFTISRDNAKNTVYLQMNSLKPEDTAVYYCNAAGFKTSWYYYGDWYDYWGQGTQVTVSS | high polyreactivity
QVQLVESGGGLVQAGGSLRLSCAASGRIISSYAMGWYRQAPGKERELVAAITSSGGSTYYADSVKGRFTISRDNAKNTVYLQMNSLKPEDTAVYYCAARVFARYYTAYGVETRREEDYWGQGTQVTVSS | low polyreactivity
QVQLVESGGGLVQAGGSLRLSCAASGRIITAYYAMGWYRQAPGKERELVASISSSGTSTYADSVKGRFTISRDNAKNTVYLQMNSLKPEDTAVYYCATRKLRTRRYDYGYWGQGTQVTVSS | low polyreactivity
QVQLVESGGGLVQAGGSLRLSCAASGRIITRYAMGWYRQAPGKERELVAAISSGGSTYYADSVKGRFTISRDNAKNTVYLQMNSLKPEDTAVYYCARGWSGAYAGGYWGQGTQVTVSS | high polyreactivity
QVQLVESGGGLVQAGGSLRLSCAASGRIITYNAMGWYRQAPGKERELVAAISTTGGRTYYADSVKGRFTISRDNAKNTVYLQMNSLKPEDTAVYYCNAVLKRPLAYHVTYDYWGQGTQVTVSA | high polyreactivity
QVQLVESGGGLVQAGGSLRLSCAASGRIIVLYAMGWYIQAPGKERELVASIRSGGSTNYADSVKGRFTISRDNAKNTVYLQMNSLKPEDTAVYYCAARIRSVVPFDMDYWGQGTQVTVSS | low polyreactivity
QVQLVESGGGLVQAGGSLRLSCAASGRIIVRNAMGWYRQAPGKERELVAAISGSGSRTYYADSVKGRFTISRDNAKNTVYLQMNSLNPEDTAVYYCAASGYWPFRSGFGYWGQGTQVTVSS | high polyreactivity
QVQLVESGGGLVQAGGSLRLSCAASGRIIYGNALGWYRQAPGKERELVAAITSGGSTNYADSVKGRFPISRDNAKNTVYLQMNSLIPEDTAVYYCNAVVYSAYRYEYWGQGTQVTVSS | low polyreactivity
QVQLVESGGGLVQAGGSLRLSCAASGRIIYIYAMGWYIQAPGKERELVAAITASSGSTNYADSVKGRFTISRDNAKNTVYLQMNSLKPEDTAVYYCAAAPSRTLLRQSKYYYWGQGTQVTVSS | low polyreactivity
QVQLVESGGGLVQAGGSLRLSCAASGRIIYKNAMGWYRQAPGKERELVAAITSSGGSTYYADSVKGRFTISRDNAKNTVYLQMYSLKPEDTAVYYCATDWPHWRKVYWFDYWGQGTQVTVSS | low polyreactivity
QVQLVESGGGLVQAGGSLRLSCAASGRIIYNYAMGWYRQAPGKERELVAAISRGGSTNYADSVKGRFTISRDNAKNTVYLQMNSLKPEDTAVYYCAAWTYVWTRGGSPVTVQRYNYWGQGTQVTVSS | high polyreactivity
QVQLVESGGGLVQAGGSLRLSCAASGRIIYSYAMGWYRQAPGKERELVATITASGGRTYYADSVKGRFTISRDNAKNTVYLQMHSLKQEDSAVYYCNARYYGSFRRRYDYWGQGTQVTVSS | high polyreactivity
QVQLVESGGGLVQAGGSLRLSCAASGRIIYTYAMGWYRQAPGKERELVAAISWSGGSTYYADSVKGRFTISRDNAKNTVYLQMNSLKPEDTAVYFCNAAYYGYENLSKRGYWGQGTQVTVSS | high polyreactivity
QVQLVESGGGLVQAGGSLRLSCAASGRILAAYTMGWYRQAPGKERELVAAITRGGSRTNYADSVKGRFTISRDNAKNTVYLQMNSLKPEDTAVYYCAATWSAYRRWGYDYWGQGTQVTVSS | high polyreactivity
QVQLVESGGGLVQAGGSLRLSCAASGRILASYAMGWYRQAPGKECELVAAIRYRGSTSYADSVKGRFTISRDNAKNTVYLQMNSLKPEDTAVYYCAAKWHVRGRGARYRYDYDYWGQGTQVTVSS | low polyreactivity
QVQLVESGGGLVQAGGSLRLSCAASGRILDWYAMGWYRQAPGTERELVASIYSTGGSSYYADSVKGRFTISRDHAKNTVYLQMNRLKPDDTAVYYCAAVIRSQDGRGYDYWGHGTQVTVSS | high polyreactivity
QVQLVESGGGLVQAGGSLRLSCAASGRILGFYAMGWYRQAPGKERELVARINWSGTRTYYADSVKGRFTISRDNAKNTVYLQMNSLKPEDTAVYYCAARRYYPYDYWGQGTQVTVSS | high polyreactivity
